Measurements: patent publication US20090280138A1 (OXFORD BIOMEDICA UK, published 2009)

The binders below were run against T1, MHC class I allele B*0702 monomer (human, biotinylated, bound to streptavidin-coated plate) (assay: iTopia, multiparametric iScore).
T1 construct: also called B7; HLA-B7
Method in brief: (§1)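 9-mer peptides were tested on plates coated with MHC molecules, measuring binding, off-rate and affinity by ELISA in duplicate with allele-specific positive controls.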

Point of comparison: ADPRLTNLS [5T4 9-mer peptide 204], iScore 0.094. Against it:
- PRLTNLSSN [5T4 9-mer peptide 205] — lower, 0
- INADPRLTN [5T4 9-mer peptide 203] — lower, 0
- LTNLSSNSD [5T4 9-mer peptide 206] — lower, 0
- YEINADPRL [5T4 9-mer peptide 202] — lower, 0

The binders below were run against T2, MHC class I allele A*0101 monomer (human, biotinylated, bound to streptavidin-coated plate) (assay: iTopia, multiparametric iScore).
T2 construct: placeholder peptide and b2M removed, then reconstituted with test peptide and fresh b2M; also called A1; HLA-A1
Method in brief: as §1

Point of comparison: PRLTNLSSN [5T4 9-mer peptide 205], iScore 0. Against it:
- INADPRLTN [5T4 9-mer peptide 203] — the same, 0
- ADPRLTNLS [5T4 9-mer peptide 204] — the same, 0
- LTNLSSNSD [5T4 9-mer peptide 206] — the same, 0
- YEINADPRL [5T4 9-mer peptide 202] — the same, 0

What follows are binders tested against T3, MHC class I allele A*0201 monomer (human, biotinylated, bound to streptavidin-coated plate) (assay: iTopia, multiparametric iScore).
T3 construct: also called A2; HLA-A2
Method in brief: as §1

Point of comparison: PRLTNLSSN [5T4 9-mer peptide 205], iScore 0. Against it:
- INADPRLTN [5T4 9-mer peptide 203] — the same, 0
- ADPRLTNLS [5T4 9-mer peptide 204] — the same, 0
- LTNLSSNSD [5T4 9-mer peptide 206] — higher, 0.027
- YEINADPRL [5T4 9-mer peptide 202] — higher, 0.077

The binders below were run against T4, MHC class I allele A*0301 monomer (human, biotinylated, bound to streptavidin-coated plate) (assay: iTopia, multiparametric iScore).
T4 construct: also called A3; HLA-A3
Method in brief: as §1

Point of comparison: YEINADPRL [5T4 9-mer peptide 202], iScore 0. Against it:
- PRLTNLSSN [5T4 9-mer peptide 205] — the same, 0
- INADPRLTN [5T4 9-mer peptide 203] — the same, 0
- ADPRLTNLS [5T4 9-mer peptide 204] — the same, 0
- LTNLSSNSD [5T4 9-mer peptide 206] — the same, 0

What follows are binders tested against T5, MHC class I allele A*0101 (bound via biotin to streptavidin-coated plate) (assay: iTopia peptide binding assay).
T5 construct: iTopia MHC class I monomer on the plate; placeholder peptide and b2M removed, then reconstituted with test peptide and fresh b2M; also called A1; HLA A1
Method: (§2) The 9 mers were tested for Peptide Binding, Off Rate and Affinity using iTopia Epitope Discovery System in accordance with the manufacturer's instructions. Briefly, 96 well microtitre plates coated with MHC molecules representing different MHC alleles are used to identify candidate peptides. […] Determinations are performed in duplicate using an ELISA plate reader and included allele specific positive controls.
(§3) i) Peptide Binding—This assay measures the ability of individual peptides to bind to the MHC molecules under standardized optimal binding conditions. The assay is performed for all the test peptides across the selected MHC alleles. The test peptides identified as “binders” are characterized further in terms of affinity and dissociation experiments.

Point of comparison: QPPLPDQCP (also called Peptide No 28) [5T4 9 mer peptide 28 QPPLPDQCP], “% of positive control peptide binding” value 6%. Against it:
- RLRLARLAL (also called Peptide No 8) [5T4 9 mer peptide 8 RLRLARLAL] — lower, 3%
- QCPALCECS (also called Peptide No 31) [5T4 9 mer peptide 31 QCPALCECS] — lower, 3%
- ASAVSAQPP (also called Peptide No 25) [5T4 9 mer peptide 25 ASAVSAQPP] — lower, 2%
- PDQCPALCE (also called Peptide No 30) [5T4 9 mer peptide 30 PDQCPALCE] — lower, 5%
- SAQPPLPDQ (also called Peptide No 27) [5T4 9 mer peptide 27 SAQPPLPDQ] — lower, 2%
- PALCECSEA (also called Peptide No 32) [5T4 9 mer peptide 32 PALCECSEA] — lower, 4%
- MPGGCSRGP (also called Peptide No 1) [5T4 9 mer peptide 1 MPGGCSRGP] — lower, 0%
- APFLASAVS (also called Peptide No 23) [5T4 9 mer peptide 23 APFLASAVS] — lower, 1%

Each binder was assayed against T6, MHC class I allele A*0301 (bound via biotin to streptavidin-coated plate) (assay: iTopia peptide binding assay).
T6 construct: iTopia MHC class I monomer on the plate; placeholder peptide and b2M removed, then reconstituted with test peptide and fresh b2M; also called A3; HLA A3
Method: as §2, §3

Point of comparison: MPGGCSRGP (also called Peptide No 1) [5T4 9 mer peptide 1 MPGGCSRGP], “% of positive control peptide binding” value 0%. Against it:
- RLRLARLAL (also called Peptide No 8) [5T4 9 mer peptide 8 RLRLARLAL] — higher, 43%
- QCPALCECS (also called Peptide No 31) [5T4 9 mer peptide 31 QCPALCECS] — the same, 0%
- ASAVSAQPP (also called Peptide No 25) [5T4 9 mer peptide 25 ASAVSAQPP] — the same, 0%
- PDQCPALCE (also called Peptide No 30) [5T4 9 mer peptide 30 PDQCPALCE] — the same, 0%
- SAQPPLPDQ (also called Peptide No 27) [5T4 9 mer peptide 27 SAQPPLPDQ] — the same, 0%
- PALCECSEA (also called Peptide No 32) [5T4 9 mer peptide 32 PALCECSEA] — the same, 0%
- QPPLPDQCP (also called Peptide No 28) [5T4 9 mer peptide 28 QPPLPDQCP] — higher, 1%
- APFLASAVS (also called Peptide No 23) [5T4 9 mer peptide 23 APFLASAVS] — the same, 0%

The binders below were run against T7, MHC class I allele A*0201 (bound via biotin to streptavidin-coated plate) (assay: iTopia peptide binding assay).
T7 construct: iTopia MHC class I monomer on the plate; placeholder peptide and b2M removed, then reconstituted with test peptide and fresh b2M; also called A2; HLA A2
Method: as §2, §3

Point of comparison: PALCECSEA (also called Peptide No 32) [5T4 9 mer peptide 32 PALCECSEA], “% of positive control peptide binding” value 19%. Against it:
- QCPALCECS (also called Peptide No 31) [5T4 9 mer peptide 31 QCPALCECS] — lower, 2%
- ASAVSAQPP (also called Peptide No 25) [5T4 9 mer peptide 25 ASAVSAQPP] — lower, 5%
- PDQCPALCE (also called Peptide No 30) [5T4 9 mer peptide 30 PDQCPALCE] — lower, 3%
- SAQPPLPDQ (also called Peptide No 27) [5T4 9 mer peptide 27 SAQPPLPDQ] — lower, 13%
- MPGGCSRGP (also called Peptide No 1) [5T4 9 mer peptide 1 MPGGCSRGP] — lower, 9%
- QPPLPDQCP (also called Peptide No 28) [5T4 9 mer peptide 28 QPPLPDQCP] — lower, 5%
- APFLASAVS (also called Peptide No 23) [5T4 9 mer peptide 23 APFLASAVS] — lower, 15%

These binders were tested against T8, MHC class I allele B*0702 (bound via biotin to streptavidin-coated plate) (assay: iTopia peptide binding assay).
T8 construct: iTopia MHC class I monomer on the plate; placeholder peptide and b2M removed, then reconstituted with test peptide and fresh b2M; also called B7; HLA B7
Method: as §2, §3

Point of comparison: SAQPPLPDQ (also called Peptide No 27) [5T4 9 mer peptide 27 SAQPPLPDQ], “% of positive control peptide binding” value 3%. Against it:
- RLRLARLAL (also called Peptide No 8) [5T4 9 mer peptide 8 RLRLARLAL] — higher, 46%
- QCPALCECS (also called Peptide No 31) [5T4 9 mer peptide 31 QCPALCECS] — lower, 0%
- ASAVSAQPP (also called Peptide No 25) [5T4 9 mer peptide 25 ASAVSAQPP] — lower, 0%
- PDQCPALCE (also called Peptide No 30) [5T4 9 mer peptide 30 PDQCPALCE] — lower, 1%
- PALCECSEA (also called Peptide No 32) [5T4 9 mer peptide 32 PALCECSEA] — lower, 0%
- MPGGCSRGP (also called Peptide No 1) [5T4 9 mer peptide 1 MPGGCSRGP] — the same, 3%
- QPPLPDQCP (also called Peptide No 28) [5T4 9 mer peptide 28 QPPLPDQCP] — the same, 3%
- APFLASAVS (also called Peptide No 23) [5T4 9 mer peptide 23 APFLASAVS] — higher, 37%
